The record followed here is PMC8262983.

The assay has as its target recombinant 6×His-HSP70 (P. falciparum).

B1: recombinant 6×His-HSP40 (natural protein)
chain: MFFSSGFPFDSMGGQQARRKREVNNNKFYEVLNLKKNCTTDEVKKAYRKLAIIHHPDKGGDPEKFKEISRAYEVLSDEEKRKLYDEYGEEGLENGEQPADATDLFDFILNAGKGKKKRGEDIVSEVKVTLEQLYNGATKKLAISKDIICTNCEGHGGPKDAKVDCKQCNGRGTKTYMRYHSSVLHQTEVTCNTCRGKGKIFNEKDKCANCKGMCVLKTRKIIEVYIPKGAPNKHKIVFNGEADEKPNVITGNLVVILNEKQHPVFRREGIDLFMNYKISLYESLTGFVAEVTHLDERKILVNCTNSGFIRHGDIREVLDEGMPTYKDPFKKGNLYITFEVEYPMDLIITNENKEVLKILKKQNEVEKKYDLENSELEVVSCSPVDKEYIKVRVTKQQQQQQQEAYDDEDHQPEMEGGRVACAQQ
Regarding B1, the ATPase activity of HSP70 (EnzChek phosphate assay; 45 μg HSP70 with 8.9 μg HSP40 against HSP70 alone) stood at 3 fold.
